Laboratory results as given in the supplement of paper PMC9732359.
± gives the uncertainty stated by the source.

Experiment: protein stability index of a GFP-peptide fusion (yeast GPS) (PSI 1-4); higher = more stable; sorted into four equal gates, so the index is relative within each strain
Procedure, shortened: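 Peptides tiling yeast proteins in 17-residue segments were fused downstream of GFP, with Cherry expressed from the same plasmid. As a pooled library in yeast, mid-log cultures grown in leucine-free medium were sorted into four equal gates by GFP/Cherry fluorescence ratio. Gate plasmids were PCR-amplified and Illumina-sequenced, and barcodes linked reads to strains. Each peptide received a protein stability index equal to the sum of each gate's read frequency times its gate number.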

Row | Sequence | protein stability index (doa10∆) | protein stability index (pdr5∆) | protein stability index (san1∆) | protein stability index (ubr1∆)
1 | YLLENNQVGTDELILPL [YDL116W/NUP84] | 3.18 ± 0.081 | 3.06 ± 0.11 | 3.07 ± 0.069 | 2.89 ± 0.057
2 | KDQRATTPYMTKYERAR [RPO26] | 2.56 ± 0.057 | 3.01 ± 0.051 | 2.44 ± 0.11 | 3.04 ± 0.048
3 | KALILAPTRELVQQIQK [PRP28] | 2.67 ± 0.087 | 2.82 ± 0.055 | 2.75 ± 0.073 | 3 ± 0.069
4 | VCAKLFGNIQKVVNFWL [RPO21] | 2.03 ± 0.098 | 1.93 ± 0.07 | 1.95 ± 0.11 | 1.78 ± 0.074
5 | QAPTELELQVAQAFVEL [RPS7A] | 2.53 ± 0.055 | 2.82 ± 0.063 | 2.59 ± 0.047 | 2.45 ± 0.046
6 | YKEQIIQGFYWAVKEGP [SNU114] | 2.75 ± 0.088 | 2.38 ± 0.064 | 2.23 ± 0.09 | 2.38 ± 0.08
7 | LNELKAIKDKLEQDLHF [YIL149C/MLP2] | 3 ± 0.07 | 3.13 ± 0.069 | 2.82 ± 0.07 | 3.24 ± 0.063
8 | LEKERSILDDIKLSLKD [SMC4] |  | 2.85 ± 0.14 | 2.43 ± 0.17 | 2.91 ± 0.11
9 | GQEYPRIIGLSATLPNY [BRR2] | 1.9 ± 0.047 | 2.2 ± 0.044 | 1.96 ± 0.057 | 1.81 ± 0.046
10 | TFGKKADVTSNIDSSAQ [YOR098C/NUP1] | 2.09 ± 0.058 | 2.23 ± 0.045 | 1.91 ± 0.11 | 2.57 ± 0.038
11 | SNVNSDIYFKLKKLEKE [RPT3] | 3.22 ± 0.09 | 2.73 ± 0.09 | 2.93 ± 0.086 | 3.03 ± 0.072
12 | EFDSDDDDISDDEEDEI [RPN4] | 3.47 ± 0.1 | 3.28 ± 0.09 | 3.14 ± 0.082 | 3.31 ± 0.098
13 | NPRRLEIKDGRSLFLRN [YMR153W/NUP53] | 3.27 ± 0.1 | 2.9 ± 0.11 | 3.2 ± 0.087 | 3.22 ± 0.085
14 | VSNSISRLGEENLPGLS [SNU114] | 1.14 ± 0.12 | 1.27 ± 0.15 | 1.07 ± 0.15 | 1.07 ± 0.12
15 | IYRDRSTFTKHLIKCFF [ITC1] | 2.11 ± 0.043 | 1.68 ± 0.038 | 2.21 ± 0.046 | 2.26 ± 0.031
16 | DYVASLNELYQTQQDLP [NSL1] | 3 ± 0.056 | 3.19 ± 0.052 | 3.12 ± 0.058 | 3.06 ± 0.039
17 | FHTSFSAVVGPNGSGKS [SMC4] | 3.09 ± 0.089 | 3.18 ± 0.084 | 3.35 ± 0.085 | 3.37 ± 0.12
18 | EKLYIFYKLNMPDEFNT [SRP72] | 2.13 ± 0.043 | 1.96 ± 0.053 | 1.91 ± 0.078 | 1.6 ± 0.041
19 | ILSLEQSSRVVSLSQLL [YCS4] | 1.84 ± 0.072 | 1.5 ± 0.05 | 2.12 ± 0.098 | 1.85 ± 0.063

Row | Sequence | protein stability index (doa10∆) | protein stability index (pdr5∆) | protein stability index (san1∆) | protein stability index (ubr1∆)
20 | GGSGNGDDVVNDVQGID [RPP1] | 3.54 ± 0.25 | 3.55 ± 0.25 | 3.27 ± 0.079 | 3.1 ± 0.1
21 | HNHDTGCDENDSTVNKS [YDL088C/ASM4] | 3.2 ± 0.09 | 3.2 ± 0.079 | 3.3 ± 0.057 | 3.05 ± 0.068
22 | EIDDTEAEVTAEVNGGD [BRR2] | 3.13 ± 0.088 | 2.79 ± 0.12 | 3.01 ± 0.13 | 3.16 ± 0.065
23 | NPNTNTNSNNTPLQSQL [PGD1] | 2.91 ± 0.071 | 2.96 ± 0.066 | 2.88 ± 0.058 | 2.98 ± 0.07
24 | LYVVGLFDTYHASKAIG [RRP6] | 1.91 ± 0.045 | 2.38 ± 0.043 | 1.88 ± 0.069 | 2.49 ± 0.035
25 | VEEDHTLGNALRYVIMK [RPC19] | 3.08 ± 0.11 | 2.75 ± 0.071 | 2.54 ± 0.085 | 2.73 ± 0.063
26 | NPSVKQGEVGAVFIVPK [SWP82] | 3.23 ± 0.26 | 3.23 ± 0.15 | 3.28 ± 0.12 | 
27 | TYVEELFPIVKKHGKTD [YJL039C/NUP192] | 3.33 ± 0.14 | 3.44 ± 0.11 | 3.32 ± 0.12 | 3.19 ± 0.091
28 | GYLIQVLLTFLQDELHK [YCS4] | 2.97 ± 0.1 | 2.02 ± 0.088 | 2.01 ± 0.12 | 3.24 ± 0.096
29 | RGFKVGLVCADTFRAGA [SRP54] | 2.19 ± 0.22 | 2.25 ± 0.081 |  | 2.23 ± 0.11
30 | EIGLLGGRYVYPVHEAH [SNU114] | 1.85 ± 0.064 | 2.55 ± 0.091 | 2.79 ± 0.077 | 2.03 ± 0.084
31 | GPEITPEEATTIFSVMV [PRP8] | 2.09 ± 0.13 | 2.37 ± 0.14 | 1.77 ± 0.22 | 2.6 ± 0.13
32 | VKIGKFIPHGLKRRQVI [SRB8] | 2.48 ± 0.1 | 2.23 ± 0.075 | 3.11 ± 0.06 | 1.95 ± 0.078
33 | TKESQPTIEEDLTRVYK [FAS2] | 3.46 ± 0.12 | 3.32 ± 0.094 | 3.2 ± 0.07 | 3.48 ± 0.091
34 | PRDVIKGKDFEITAKEV [FAS1] | 3.27 ± 0.095 | 3.41 ± 0.12 | 3.24 ± 0.07 | 3.36 ± 0.083
35 | AEEAAAEEEEESDDDMG [RPP0] | 3.62 ± 0.12 | 2.94 ± 0.15 | 3.23 ± 0.056 | 3.27 ± 0.068
36 | DLEEVKRFQVLYPCYFD [SEC65] | 2.28 ± 0.14 | 2.75 ± 0.088 | 2.42 ± 0.25 | 2.34 ± 0.12
37 | LSSMRFKPSQEPEFHAL [RRI1] | 2.58 ± 0.053 | 2.75 ± 0.05 | 2.75 ± 0.075 | 2.42 ± 0.04
38 | TIFKSGEIDFIKNIGKS [YML103C/NUP188] | 1.64 ± 0.069 | 2.37 ± 0.061 | 1.92 ± 0.12 | 2.51 ± 0.073
